The text below walks through data of doi:10.1101/2021.09.08.459485 (2021).

Assay [1] has as its target T1, SARS-CoV-2 Spike protein peptide on HLA-DPB1*04:01 (human).
T1 peptide: TFEYVSQPFLMDLE
Kind of assay: multimer staining.

The target in assay [2] is T2, SARS-CoV-2 Spike protein peptide on HLA-DPB1*04:01 (human).
T2 peptide: CTFEYVSQPFLMDLE
The assay is described as follows: activation reporter or marker.

B1: TCR6.3 (TCR)
alpha TRAV35 TRAJ42 CDR3: CAGMNYGGSQGNLIF
beta TRBV6-3 TRBJ1-2 CDR3: CASSYRGAYGYTF
Turning to B1, the binding result in assay [1] and in assay [2] was “recognises” in each case.

B2: TCR4.1 (TCR)
alpha TRAV35 TRAJ42 CDR3: CAGMNYGGSQGNLIF
beta TRBV4-1 TRBJ1-2 CDR3: CASSQGVGYTF
On to B2, for which the binding result in assay [1] and in assay [2] was “recognises” throughout.
